Assay results taken from the supplement of paper PMC9170038.

system: K4 kissing-loop RNA reporter; test: apparent KD of K4 kissing-loop reporter; higher = weaker reporter binding; details: Eterna round: R107; input ligand: theophylline 20 uM
Description: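 RNA-MaP round R107: designed RNA switches with theophylline, tryptophan, arginine or FMN aptamers are transcribed on-chip within common flanks. They are titrated with a labelled K4 kissing-loop RNA reporter in RNA-MaP buffer (100 mM Tris pH 7.5, 80 mM KCl, 4 mM MgCl2), without ligand or with the indicated ligand. Median apparent KD per design.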
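Also: bound reporter read as fluorescence of individual clusters on recovered sequencing chips by microscopy, with normalized cluster intensities fitted with a binding model.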

Sequence	apparent KD of K4 kissing-loop reporter [µM]
UAGUCCGAGUGAUGGUCAUCACGUGGCGGGCGAGGACCGGUACGGCCGCCACUCGACUUUGCAGUGAUGUUGCAAACCGGACAAU [Exclusion - Tryptophan A (Freestyle 21)]	0.224
GUCCACACUGCAGGAUAUGGAGGUAUAGCGAGGGAGUGUGGAAGCACACCUCUGGCAGUGAUGUUGCCAGAAGGGCGGUGCGGCG [Masodionra]	0.0903
GAGAGCCCUGGAGGAUAUGAGUCUAGUGAUGUUAGGCGGUCCAUGCGCGUGGCGCGUUAUGCCCUUUUAGAAGGCCAGGGCUCUC [#2 Exclusion - FMN B Attempt #18 (HarryS)]	0.0852
UUCUACGUGCAAGGAUAUCCAUACGCUGCUAAGCGGGUAGCGAUAUAUGGAGUGAUGUUCCAUGUAGGAGAAGGUGCACUGUCCU [Rieser]	0.253
AAGGUUCGUGGAAGGAGCGCCCGUGCGACUCGUUCACUAAGUGAAGUCCGAGUGAUGUUCGGGCAGGUAGGUCGCCACGGGCAAA [Atonenge]	0.153
UAAUAAAUUCCAGCUGUAUCACUCUUCGAAGGAGCGGACGAAAGUCCAGGUAGGUCGCGAAGAGUGAUGUUCUUUGCGGCGCUGG [Omei KL Arginine A Exc A v6]	0.0766
CCGUGGCCGACGGCCGCCACUCUUACCAUCCAGCGGAGUGAUGUUCCGCCCGAGUGAUGUUCGGAGAGGACCGGGUCUGUUGUAA [Exclusion Tryptophan B GF30]	0.0891
CCAGGAUGAUGAGGAUGAUAAAUUACUGAAGGAGCGCAUAUGGUUGCAGGUAGGUCGCGGUGAAUAAGUAUAGUGAUGUUAUGCC [SSArgA.Y]	0.801
UUCUAACACACCGAUACCAGAGCCCAGUGAUGUUGGGCCUAGGUCGGAUGCUCACUGACGCUCCCUUGGCAGCGGUGGGCUAACC [Arreisve]	0.11
AAUACGAAGCAGUGAUGUUGCUUAUGAGAAGGAGCGCACGAAAGUGCAGGUAGGUCGCUCAGCCAAGUGGACGAAAACGUCCACA [whbob_SS_Arginine_A_sa108]	0.127
AGCAGCAAAUCCUAGUGAUGUUAGGAUAUGUAGGAUAUCGGGAUACCGAGAAGGACAGAAGGAGGAGUGAUGUUCCUAAGCUGCA [FmnAX 24 #DoubleAptamer #DoubleK4 #SwitchBubble]	0.122

same assay, conditions: Eterna round: R107; input ligand: tryptophan 2.4 mM

Sequence	apparent KD of K4 kissing-loop reporter [µM]
UCUGUUUCGAUGGAUACCAGUCGGCGAAUCACAGCUAUUAGCCUAGUGAUGUUAGGAUCGGACCCUUGGCAGCCAAUGGAUGCGG [theeternabot_sameState_KL_Theo_B_14]	0.732
AAGGGCGGAACUUCCUCGCCGGAUAGAGAUACCAGCCCAGCAAAGGGCCCUUGGCAGCUCACUGACCUCAGUGAUGUUGAGGUUC [Riesrevere]	0.296
GUCGGCCGCGCGCAAGCGCGGCCGGCCGAUACCAGCGCGCCGGUGCGCCCUUGGCAGCGGCACCGAGUGAUGUUCGGUCAGACGA [#2 Same State - Theophylline A Attempt #6 (HarryS)]	0.234
UGCGCUAUGUCCUAAAAUGUCCUCCGGGAUACCAGAGUCUUUUUAUUCCCUUGGCAGCUUGAGUGAUGUUUGAUGCCGUUCUUGU [nnbvmullin]	0.415
CCGGGCGGCCGAAGGAGCGGGCGGACCCGAGUGAUGUUCGGGUGGACCGUGAGGUCCGGUGCCCAGGUAGGUCGCGGUUCCGUCC [#2 Same State - Arginine B Attempt #6 (HarryS)]	0.121
GGAUAGGACAGAGGAUAUGGUAGCUAGGCAAGACAAAAGUCUUGUCUAGCAAUGAGGAGUGAUGUUCCAGAAGGCUGUCCUAUCG [FmnBX 4 - #SwitchBubble #StaticStem]	0.27
UGAUUAAGCAGUGAUGUUGCAAGUAAUGAUACCAGUUAAGAAGAGAACCCUUGGCAGCAUAAAGUGCGCUCUGAUGAGUGUGCUU [whbob_SS_Theo_A_w53]	0.0956
GGGAGAAGUGCGGCCGCCACUGAGAAAGAAGAAGAAUAUAGUGAUGUUAUAUAGGAAAGGAAGAACAGGACCGGGCAUAAGAGGG [SSTryptB.A]	0.0991
UAGGAGUGAUGUUCCAUGUCUUGAGCCGAAGGAGCGCCUUUCUAGGCAGGUAGGUCGCGGCAGAAGGUACCAGUGAUGUUGGAAA [Same State Arginine A GF8]	0.279
GUAUCGCUAGGAGGAUAUUUCGUUUUUCAUAGCAAUGGCUGUGCGGAGUGAUGUUCCGAUUUACCGGAAGAAGGCCUAGUGAUAC [FMN B 27]	0.161
CCUAUCUCAUACGAUACCAGUCAAUGAUCUUUGAUCAAUGCCAUCACCGAGUGAUGUUCGGACCCUUGGCAGCGUAUGAGAUGGG [whbob_Ex_Theo_B_sa104]	0.246
GGACUACUAUGUCCCAUACAAACAAGAGAUACCAGCCAUCAUAGAGGCCCUUGGCAGCUCAUAUAAUCCAGUGAUGUUGGAUUUC [Beveus]	0.132
GGUGACGACCAGAGGUGAUGUAUAGUAUCGCGAGGACCGGUACGGCCGCCACUCGUGAAGAGAAAGGAGUGAUGUUCCGUAAUGG [Kazoo C9]	0.108
UUUUUAUUCAGUGAUGUUGAAUUUAUAUCAGAGGAUAUGCAUAAAAGCAGAAGGCUGAAAUACUAUACUUUAAUAAAUUAUAUUU [JR_SSFMNA_Sub017]	0.217
GCUAUGGUAGGAAGGAGCGCUGCCUUGUUUUUACGAGUGAUGUUCGGAAGCAGGGCGUUAAAGCAGGUAGGUCGCCUACUAUAGC [Arginine B K4 22]	0.146
UCCUACGAGGUAACGUGGAUAUCUCGUUGCAAGGAUAUCUGGAAACAGAGAAGGUGCUACAUUAUCGGCAGUGAUGUUGCUGACC	0.529
AAAGAUGCGUCGGCCGCCACUGUUGCCAGUGAUGUUGGCAUGUAGAUGCAGUGAUGUUGCGUUUUCAGGACCGGGACGUAAGAUG [5th]	0.134
GGCGUCAAACCAGAACUAGUGAUGUUGGUUCGAGGACCGGUACGGCCGCCACUCGAUCUCUUGGUCCAUCGCGGAAGGGCAGCGG [theeternabot_exclusion_KL_Trp_A_29]	0.622
UUUGUAUAGGGAAGGAGCGUGAAUGAUAAAGAAUAUAGUGAUGUUAUAUAGAAGAAAGAAUCACAGGUAGGUCGCCCGGAGGAGG [SSArgB.H]	0.361
AGUGCCGAGUGUGAUACCAGCUUCAUGCAGUGAUGUUGCACACGAGUGAUGUUCGUCCGAGGCCCUUGGCAGCGCAGUCGCUCGA [Same State Theophylline B Gf 30]	0.67
UGUGAUGUUGUGAUGUUUAGUGUUGUUGGGCAGGAUAUUGUAGAGGCGAGAAGGGCUAGUGUGAUGUAUGAGUGAUGUUUGUAGU [kkollmullin]	0.186

Sequence	apparent KD of K4 kissing-loop reporter [µM]
UGUCAUUGGUCUGAUACCAGAAGAAAUCUGGAGUGAUGUUCCAAGUCGACAAAAUGUCGCUUCCCUUGGCAGCAGACCGAUGACU [TheoBS 23 #SwitchBubble 13 #StaticStem]	0.349
GUUACGCAUGGAAGGAGCGCUCUCAUAUUUAAUAACACAGUGAUGUUGUGAAUUUAUAUAAAGCAGGUAGGUCGCCAUGUGUAAC [Ex Arginine B K4 6]	0.258
GGUAUCUAUACAGAUACCAGUCGUACAGCACCAUUACAGGUUAGUGAUGUUAACCUGUACGACCCUUGGCAGCUGUAUUAUAAUA [#15 K4 Theophylline B Exclusion]	0.0852
UGACUACAUAAGGAAUAAUCCUAGUGAUGUUAGGAUAUGCUGAUAAGCAGAAGGAACGGAGAUCGAAGGAUCUCAUAUGUAGUCU [whbob_Ex_FMNA__2th194]	0.103
GUGCGCGGUGCGGCCGCCACUCGCAUGAGAGUGAUGUUCUCGGGACGGACGGAAGUCCGUCAUGUGAGGACCGGGCAUGGCUGCG [#2 Same State - Tryptophan B Attempt #10 (HarryS)]	0.453
UACUUAUAUAUCAACUUAAAUUAUUCAGAAGGAGCGUGAUCAUUCACAGGUAGGUCGCUGAACUAGUGAUGUUAGUUUUAAUUUU [JR_Nu_ExcArginiA_Sub023]	0.0615
GAGAUAGAGGCGGCCGCCACUAGUGAUGUUAGUGAUGUUAGAUAGAGAAUAUAACAGGGAUUAGAUAGGACCGGGCCAGAUGGAG ['lljullin]	0.1
AGUAUAGAGUCGGCCGCCACUGGUUUUAUGUGUGUCAAAUCUGGAUCAAAGUGAUGUUUUGAGACUAGGACCGGGACCAUUGUUA [#06 K4 Tryptophan B Exclusion]	0.206
AGUACAGACACGGCCGCCACUCAGAAGAAGACAGUAGUGAUGUUACUGAUGGUGAGAAUAAUAAAGAGGACCGGGUGUUGUGCAA [#04 K4 Tryptophan B Same State]	0.138
CCUAUCUCAUACGAUACCAGUGAAUUUAUGUUUAUUAGCAGUGAUGUUGCGUUCCAAGUACACCCUUGGCAGCGUAUGGGAUAGG [Ex Theophylline B K4 24]	0.113
UAGUCCGAGUGAUGGUCAUCACGUGGCGGGCGAGGACCGGUACGGCCGCCACUCGACUUUGCAGUGAUGUUGCAAACCGGACAAU [Exclusion - Tryptophan A (Freestyle 21)]	0.193
GUCCACACUGCAGGAUAUGGAGGUAUAGCGAGGGAGUGUGGAAGCACACCUCUGGCAGUGAUGUUGCCAGAAGGGCGGUGCGGCG [Masodionra]	0.0932
GAGAGCCCUGGAGGAUAUGAGUCUAGUGAUGUUAGGCGGUCCAUGCGCGUGGCGCGUUAUGCCCUUUUAGAAGGCCAGGGCUCUC [#2 Exclusion - FMN B Attempt #18 (HarryS)]	0.0897
UUCUACGUGCAAGGAUAUCCAUACGCUGCUAAGCGGGUAGCGAUAUAUGGAGUGAUGUUCCAUGUAGGAGAAGGUGCACUGUCCU [Rieser]	0.242
AAGGUUCGUGGAAGGAGCGCCCGUGCGACUCGUUCACUAAGUGAAGUCCGAGUGAUGUUCGGGCAGGUAGGUCGCCACGGGCAAA [Atonenge]	0.153
UAAUAAAUUCCAGCUGUAUCACUCUUCGAAGGAGCGGACGAAAGUCCAGGUAGGUCGCGAAGAGUGAUGUUCUUUGCGGCGCUGG [Omei KL Arginine A Exc A v6]	0.0571
CCGUGGCCGACGGCCGCCACUCUUACCAUCCAGCGGAGUGAUGUUCCGCCCGAGUGAUGUUCGGAGAGGACCGGGUCUGUUGUAA [Exclusion Tryptophan B GF30]	0.0989
CCAGGAUGAUGAGGAUGAUAAAUUACUGAAGGAGCGCAUAUGGUUGCAGGUAGGUCGCGGUGAAUAAGUAUAGUGAUGUUAUGCC [SSArgA.Y]	0.761
UUCUAACACACCGAUACCAGAGCCCAGUGAUGUUGGGCCUAGGUCGGAUGCUCACUGACGCUCCCUUGGCAGCGGUGGGCUAACC [Arreisve]	0.114
AAUACGAAGCAGUGAUGUUGCUUAUGAGAAGGAGCGCACGAAAGUGCAGGUAGGUCGCUCAGCCAAGUGGACGAAAACGUCCACA [whbob_SS_Arginine_A_sa108]	0.0906
AGCAGCAAAUCCUAGUGAUGUUAGGAUAUGUAGGAUAUCGGGAUACCGAGAAGGACAGAAGGAGGAGUGAUGUUCCUAAGCUGCA [FmnAX 24 #DoubleAptamer #DoubleK4 #SwitchBubble]	0.107
